Test [1] deals with T1, CD138 (human, UniProt P18827 23-310).
T1 construct: whole, on cells; also called CD138 on H929 and U266 cells
T1 sequence (looked up): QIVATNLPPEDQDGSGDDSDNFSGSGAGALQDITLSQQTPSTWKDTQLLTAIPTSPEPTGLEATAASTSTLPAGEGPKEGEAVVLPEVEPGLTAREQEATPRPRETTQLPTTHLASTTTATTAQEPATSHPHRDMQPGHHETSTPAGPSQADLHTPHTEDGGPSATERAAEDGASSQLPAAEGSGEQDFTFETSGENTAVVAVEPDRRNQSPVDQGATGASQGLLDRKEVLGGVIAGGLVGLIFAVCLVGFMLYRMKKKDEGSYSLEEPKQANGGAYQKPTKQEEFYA
The experiment in a line: flow cytometry on H929 and U266 (CD138+) cells, detected with 647-conjugated F(ab')2 donkey anti-human Fc [CONT.]. The protocol: (§1) The binding activities of these DVDs are also tested against target expressing cells. […] The cells are washed with 200 μL flow cytometry buffer (PBS, 2% (w/v) FBS, pH 7.4), are incubated with DVD1 or DVD2 for 30 min on ice, are washed with 200 μL flow cytometry buffer, and are stained with 647 conjugated polyclonal (Fab′)₂ donkey anti-human Fc (Jackson ImmunoResearch Laboratories) for 20 min on ice. After washing twice with 200 μL ice-cold flow cytometry buffer, the cells are analyzed using a Canto II Flow Cytometer (Becton-Dickinson). Data were analyzed using FlowJo software (Tree Star).

Test [2] addresses T2, CD79b (UniProt P40259 29-229, limits assumed).
T2 construct: whole, on cells; also called CD79b on Ramos cells
T2 sequence (looked up): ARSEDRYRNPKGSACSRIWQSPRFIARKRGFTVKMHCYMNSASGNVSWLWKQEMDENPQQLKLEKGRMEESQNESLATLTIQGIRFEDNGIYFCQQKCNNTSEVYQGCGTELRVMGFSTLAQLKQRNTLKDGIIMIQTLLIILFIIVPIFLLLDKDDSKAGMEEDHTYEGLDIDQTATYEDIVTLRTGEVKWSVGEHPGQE
The experiment in a line: flow cytometry on Ramos (CD79b+) cells, detected with 647-conjugated F(ab')2 donkey anti-human Fc [CONT.]. The protocol:
as §1
In general terms: A flow cytometer gives signals particle by particle.

Test [3] addresses T3, HER2 (human, UniProt P04626 23-1255).
T3 construct: whole, on cells; also called ERBB2; HER2 on SK-BR-3 (SKBR3) cells
Kind of test: flow cytometry on SK-BR-3 (SKBR3, HER2+) cells, detected with 647-conjugated F(ab')2 donkey anti-human Fc. The procedure: as §1

B1: h38C2 IgG1 (antibody, V domains shown)
VH: EVQLVESGGGLVQPGGSLRLSCAASGFTFSNYWMSWVRQSPEKGLEWVSEIRLRSDNYATHYAESVKGRFTISRDNSKNTLYLQMNSLRAEDTGIYYCKTYFYSFSYWGQGTLVTVSS
VL: ELQMTQSPSSLSASVGDRVTITCRSSQSLLHTYGSPYLNWYLQKPGQSPKLLIYKVSNRFSGVPSRFSGSGSGTDFTLTISSLQPEDFAVYFCSQGTHLPYTFGGGTKVEIK
notes: also called parent h38C2 IgG1; unconjugated humanized 38C2 antibody
In the case of B1, the binding result in test [1], in test [2] and in test [3] was “no binding” in each case.

B2: CD138-h38C2-DVD1 immunoglobulin (antibody, human IgG1, kappa)
light: DIQMTQSTSSLSASLGDRVTISCSASQGINNYLNWYQQKPDGTVELLIYYTSTLQSGVPSRFSGSGSGTDYSLTISNLEPEDIGTYYCQQYSKLPRTFGGGTKLEIKASTKGPELQMTQSPSSLSASVGDRVTITCRSSQSLLHTYGSPYLNWYLQKPGQSPKLLIYKVSNRFSGVPSRFSGSGSGTDFTLTISSLQPEDFAVYFCSQGTHLPYTFGGGTKVEIKRTVAAPSVFIFPPSDEQLKSGTASVVCLLNNFYPREAKVQWKVDNALQSGNSQESVTEQDSKDSTYSLSSTLTLSKADYEKHKVYACEVTHQGLSSPVTKSFNRGEC
heavy: not shown
notes: also called CD138 DVD; anti-CD138 DVD1
With B2, in test [1], the binding result is reported as “binds”.

Values taken from patent publication US20180250415A1 (Scripps Research, published 2018).
